Paper PMC6800134

Biological target: GST-tagged Rb RxL mut (lacks all 5 RxL sequences in its unstructured regions) (human) (UniProt P06400)
UniProt P06400, sequence (P06400 whole entry): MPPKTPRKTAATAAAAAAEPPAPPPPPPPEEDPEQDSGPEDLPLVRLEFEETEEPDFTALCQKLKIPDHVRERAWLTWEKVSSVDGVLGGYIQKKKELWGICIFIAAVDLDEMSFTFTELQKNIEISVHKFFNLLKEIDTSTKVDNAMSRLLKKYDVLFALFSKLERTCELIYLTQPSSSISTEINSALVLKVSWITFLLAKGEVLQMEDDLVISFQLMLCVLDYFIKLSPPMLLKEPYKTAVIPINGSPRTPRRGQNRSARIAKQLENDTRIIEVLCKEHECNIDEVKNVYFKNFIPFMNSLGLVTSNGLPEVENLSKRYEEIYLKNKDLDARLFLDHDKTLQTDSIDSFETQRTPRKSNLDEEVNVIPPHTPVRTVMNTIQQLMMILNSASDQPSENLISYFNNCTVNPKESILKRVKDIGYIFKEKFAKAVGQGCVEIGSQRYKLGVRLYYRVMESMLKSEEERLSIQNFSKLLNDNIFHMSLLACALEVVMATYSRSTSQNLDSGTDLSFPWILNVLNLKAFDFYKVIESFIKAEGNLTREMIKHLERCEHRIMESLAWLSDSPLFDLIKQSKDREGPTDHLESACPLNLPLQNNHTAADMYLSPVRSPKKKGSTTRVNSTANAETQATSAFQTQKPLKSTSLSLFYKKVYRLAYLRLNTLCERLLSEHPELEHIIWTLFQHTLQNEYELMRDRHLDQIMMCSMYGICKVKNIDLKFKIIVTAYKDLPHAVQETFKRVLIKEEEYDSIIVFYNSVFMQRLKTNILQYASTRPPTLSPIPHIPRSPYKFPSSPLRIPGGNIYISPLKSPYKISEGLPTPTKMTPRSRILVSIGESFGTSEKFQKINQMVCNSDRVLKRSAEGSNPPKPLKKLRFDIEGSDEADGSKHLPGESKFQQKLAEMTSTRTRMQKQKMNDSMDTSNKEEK

Substance	in vitro kinase assay: fold less phosphorylation than wild type Rb
3X FLAG-tagged cyclin A-Cdk2 fusion complex (enzyme)	2.9 fold
3X FLAG-tagged cyclin E1-Cdk2 fusion complex (enzyme)	2 fold
